Test results published in US20180155451A1 (published 2018).

T1: FcγRIIb extracellular domain with C-terminal His tag (human, UniProt P31994 43-217)
T1 construct: extracellular domain; also called FcgRIIb; 2b; not shown: His tag at the C terminus
T1 sequence (looked up): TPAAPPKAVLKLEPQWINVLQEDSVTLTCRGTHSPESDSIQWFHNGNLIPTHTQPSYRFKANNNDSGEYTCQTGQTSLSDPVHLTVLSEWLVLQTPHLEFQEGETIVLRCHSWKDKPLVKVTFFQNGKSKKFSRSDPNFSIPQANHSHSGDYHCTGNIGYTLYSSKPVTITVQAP

T2: FcγRIIb, extracellular domain with C-terminal His tag (human, UniProt P31994 43-217)
T2 construct: extracellular domain; also called 2b; FcgRIIb; not shown: His tag at the C terminus
T2 sequence (looked up): T1 sequence (looked up)

T3: FcγRIIa H (FcγRIIa type H, His at position 131), extracellular domain with C-terminal His tag (human, UniProt P12318 34-217)
T3 construct: extracellular domain; also called 2aH; FcgRIIa H; not shown: His tag at the C terminus
T3 sequence (looked up): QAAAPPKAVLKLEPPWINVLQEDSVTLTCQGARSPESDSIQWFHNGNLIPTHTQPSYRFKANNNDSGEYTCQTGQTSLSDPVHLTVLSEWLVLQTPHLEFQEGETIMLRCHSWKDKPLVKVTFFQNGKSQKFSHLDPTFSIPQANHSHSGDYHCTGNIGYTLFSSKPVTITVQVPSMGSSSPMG

B1: GpH7-A5/GpH7-B3 variant S239_01G/GpL16-k0 (antibody, human IgG1, kappa)
heavy 1: not shown
heavy 2: not shown
light: DIVMTQSPLSLPVTPGEPASISCQASESLVHSNRNTYLHWYLQKPGQSPQLLIYKVSNRFSGVPDRFSGSGSGTDFTLKISRVEAEDVGVYYCSQNTHVPPTFGQGTKVEIERTVAAPSVFIFPPSDEQLKSGTASVVCLLNNFYPREAKVQWKVDNALQSGNSQESVTEQDSKDSTYSLSSTLTLSKADYEKHKVYACEVTHQGLSSPVTKSFNRGEC
notes: Heterodimerized anti-glypican-3 IgG1; the substitution stands in the GpH7-B3 chain only; also called He Ab
B2: GpH7-A5/GpH7-B3 variant S239_08L/GpL16-k0 (antibody, human IgG1, kappa)
heavy 1: not shown
heavy 2: not shown
light: B1 light
notes: as for B1
B3: GpH7-A5/GpH7-B3 variant P238_18N/GpL16-k0 (antibody, human IgG1, kappa)
heavy 1: not shown
heavy 2: not shown
light: B1 light
notes: as for B1
B4: GpH7-A5/GpH7-B3 variant S239_15Y/GpL16-k0 (antibody, human IgG1, kappa)
heavy 1: not shown
heavy 2: not shown
light: B1 light
notes: as for B1
B5: GpH7-A5/GpH7-B3 variant P238_19Q/GpL16-k0 (antibody, human IgG1, kappa)
heavy 1: not shown
heavy 2: not shown
light: B1 light
notes: as for B1
B6: GpH7-A5/GpH7-B3 variant S239_06M/GpL16-k0 (antibody, human IgG1, kappa)
heavy 1: not shown
heavy 2: not shown
light: B1 light
notes: as for B1
B7: GpH7-A5/GpH7-B3 variant P238_20W/GpL16-k0 (antibody, human IgG1, kappa)
heavy 1: not shown
heavy 2: not shown
light: B1 light
notes: as for B1
B8: GpH7-A5/GpH7-B3 variant S239_05P/GpL16-k0 (antibody, human IgG1, kappa)
heavy 1: not shown
heavy 2: not shown
light: B1 light
notes: as for B1
B9: GpH7-A5/GpH7-B3 variant S239_03V/GpL16-k0 (antibody, human IgG1, kappa)
heavy 1: not shown
heavy 2: not shown
light: B1 light
notes: as for B1
B10: GpH7-A5/GpH7-B3 variant P238_16H/GpL16-k0 (antibody, human IgG1, kappa)
heavy 1: not shown
heavy 2: not shown
light: B1 light
notes: as for B1
B11: GpH7-A5/GpH7-B3 variant S239_04F/GpL16-k0 (antibody, human IgG1, kappa)
heavy 1: not shown
heavy 2: not shown
light: B1 light
notes: as for B1
B12: GpH7-A5/GpH7-B3 variant S239_12R/GpL16-k0 (antibody, human IgG1, kappa)
heavy 1: not shown
heavy 2: not shown
light: B1 light
notes: as for B1
B13: GpH7-A5/GpH7-B3 variant S239_11K/GpL16-k0 (antibody, human IgG1, kappa)
heavy 1: not shown
heavy 2: not shown
light: B1 light
notes: as for B1
B14: GpH7-A5/GpH7-B3 variant S239_07I/GpL16-k0 (antibody, human IgG1, kappa)
heavy 1: not shown
heavy 2: not shown
light: B1 light
notes: as for B1
B15: GpH7-A5/GpH7-B3 variant D265_01G/GpL16-k0 (antibody, human IgG1, kappa)
heavy 1: not shown
heavy 2: not shown
light: B1 light
notes: as for B1
B16: GpH7-A5/GpH7-B3 variant V266_14T/GpL16-k0 (antibody, human IgG1, kappa)
heavy 1: not shown
heavy 2: not shown
light: B1 light
notes: Heterodimerized IgG1 (He Ab); mutation only in the GpH7-B3 chain; also called He Ab V266T
B17: GpH7-A5/GpH7-B3 variant V266_15Y/GpL16-k0 (antibody, human IgG1, kappa)
heavy 1: not shown
heavy 2: not shown
light: B1 light
notes: Heterodimerized IgG1 (He Ab); mutation only in the GpH7-B3 chain; also called He Ab V266Y

molecular target: T4, FcγRIIIa extracellular domain with C-terminal His tag (human, UniProt P08637 17-208); assay: SPR; He/Con_3a divided by He/Con_2b (binding to FcγRIIb is the reference)
T4 construct: extracellular domain; also called FcgRIIIa; 3a; not shown: His tag at the C terminus
T4 sequence (P08637 17-208): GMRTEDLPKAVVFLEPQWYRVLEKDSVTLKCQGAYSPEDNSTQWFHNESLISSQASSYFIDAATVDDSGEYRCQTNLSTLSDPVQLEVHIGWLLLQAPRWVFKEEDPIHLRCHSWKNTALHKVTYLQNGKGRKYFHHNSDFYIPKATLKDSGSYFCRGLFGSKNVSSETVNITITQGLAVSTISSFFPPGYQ
Experimental: (§1) Analysis of interaction between objective antibody and the FcγR was carried out using Biacore T100 (GE Healthcare). HBS-EP+ (GE Healthcare) was used as the running buffer, and the measurement temperature was set to 25° C. Chips produced by immobilizing the antigen peptide by the amine coupling method to a Series S Sencor Chip CM5 (GE Healthcare), or alternatively, chips produced by allowing preliminarily biotinylated antigen peptides to interact with and immobilize onto a Series S Sensor Chip SA (certified) (GE Healthcare) were used. Antibodies of interest were captured onto an antigen peptide-immobilized chip, and allowed to interact to each FcγR diluted with running buffer. To regenerate and repeatedly use the chip, the antibodies captured on the chip were washed off by reacting 10 mM glycine-HCl, pH 1.5.
(§2) The FcγR-binding activity of each antibody was assessed primarily using as an indicator the FcγR-binding activity and dissociation constant for FcγR.

Row | He_3a/2b (IIIa/IIb) [ratio] | Binder
1 | 0.53 | B1
2 | 0.68 | B2
3 | 0.55 | B3
4 | 0.73 | B4
5 | 0.51 | B5
6 | 0.78 | B6
7 | 0.4 | B7
8 | 0.15 | B8
9 | 0.71 | B9
10 | 0.27 | B10
11 | 0.57 | B11
12 | 0.44 | B12
13 | 0.48 | B13
14 | 0.74 | B14
15 | 0.28 | B15

molecular target: T4, FcγRIIIa extracellular domain with …; assay: SPR (Biacore), antibody captured on antigen peptide chip, FcγR as analyte; relative binding amount
Experimental: as §1, §2

Row | He/Con_3a | Binder
16 | 76.2 % of GpH7-A5/GpH7-B3/GpL16-k0 (=100) | B1
17 | 95.3 % of GpH7-A5/GpH7-B3/GpL16-k0 (=100) | B2
18 | 40.4 % of GpH7-A5/GpH7-B3/GpL16-k0 (=100) | B3
19 | 25.6 % of GpH7-A5/GpH7-B3/GpL16-k0 (=100) | B4
20 | 55.8 % of GpH7-A5/GpH7-B3/GpL16-k0 (=100) | B5
21 | 78.2 % of GpH7-A5/GpH7-B3/GpL16-k0 (=100) | B6
22 | 49.7 % of GpH7-A5/GpH7-B3/GpL16-k0 (=100) | B7
23 | 14.9 % of GpH7-A5/GpH7-B3/GpL16-k0 (=100) | B8
24 | 76.6 % of GpH7-A5/GpH7-B3/GpL16-k0 (=100) | B9
25 | 30.7 % of GpH7-A5/GpH7-B3/GpL16-k0 (=100) | B10
26 | 25.3 % of GpH7-A5/GpH7-B3/GpL16-k0 (=100) | B11
27 | 17 % of GpH7-A5/GpH7-B3/GpL16-k0 (=100) | B12
28 | 11.9 % of GpH7-A5/GpH7-B3/GpL16-k0 (=100) | B13
29 | 79.3 % of GpH7-A5/GpH7-B3/GpL16-k0 (=100) | B14
30 | 4.5 % of GpH7-A5/GpH7-B3/GpL16-k0 (=100) | B15

molecular target: T1, FcγRIIb extracellular domain with …; assay: as above
Experimental: as §1, §2

Row | He/Con_2b | Binder
31 | 144 % of GpH7-A5/GpH7-B3/GpL16-k0 (=100) | B1
32 | 140 % of GpH7-A5/GpH7-B3/GpL16-k0 (=100) | B2
33 | 73.2 % of GpH7-A5/GpH7-B3/GpL16-k0 (=100) | B3
34 | 34.9 % of GpH7-A5/GpH7-B3/GpL16-k0 (=100) | B4
35 | 110 % of GpH7-A5/GpH7-B3/GpL16-k0 (=100) | B5
36 | 101 % of GpH7-A5/GpH7-B3/GpL16-k0 (=100) | B6
37 | 123 % of GpH7-A5/GpH7-B3/GpL16-k0 (=100) | B7
38 | 102 % of GpH7-A5/GpH7-B3/GpL16-k0 (=100) | B8
39 | 108 % of GpH7-A5/GpH7-B3/GpL16-k0 (=100) | B9
40 | 115 % of GpH7-A5/GpH7-B3/GpL16-k0 (=100) | B10
41 | 44.1 % of GpH7-A5/GpH7-B3/GpL16-k0 (=100) | B11
42 | 39.1 % of GpH7-A5/GpH7-B3/GpL16-k0 (=100) | B12
43 | 24.7 % of GpH7-A5/GpH7-B3/GpL16-k0 (=100) | B13
44 | 107 % of GpH7-A5/GpH7-B3/GpL16-k0 (=100) | B14
45 | 16.1 % of GpH7-A5/GpH7-B3/GpL16-k0 (=100) | B15

molecular target: T2, FcγRIIb, extracellular domain with …; assay: SPR (Biacore), antibody captured on antigen-peptide chip, FcγR as analyte; GpH7-A5/GpH7-B3/GpL16-k0 = 100

Row | He/Con_2b (relative binding activity) | Binder
46 | 82.3 % of control | B16
47 | 49.4 % of control | B17

molecular target: T3, FcγRIIa H (FcγRIIa type H, His at …); assay: as above

Row | He/Con_2aH (relative binding activity) | Binder
48 | 43.3 % of control | B16
49 | 18.1 % of control | B17

molecular target: T3, FcγRIIa H (FcγRIIa type H, His at …); assay: ratio of He/Con_2aH (FcγRIIa H) to He/Con_2b (FcγRIIb), SPR relative binding
Experimental: The heterodimerized antibodies He Abs in which one of the H chains was introduced with an alteration were assayed for their binding activities to each activating FcγR and inhibitory FcγR according to the method described in Example 4. […] The activating FcγRs in FIGS. 26, 27, 28, and 29 are FcγRIa, FcγRIIa (R), FcγRIIa (H), and FcγRIIIa, respectively.
as §1

Row | He_2aH/2b (IIaH/IIb ratio) | Binder
50 | 0.53 | B16
51 | 0.37 | B17
